Source: US20170204402A1 (published 2017)

Target: T1, ACM335-FKBP hybrid protein (from plasmid pCm-ACM335-FKBP) (Bordetella pertussis, UniProt P62942 2-108)
T1 construct: also called ACM-FKBP
Assay: HSACH in vivo complementation in E. coli DHM1 (data not shown)

B1: 3K1K-CaM fusion (VHH)
VHH: QVQLVESGGALVQPGGSLRLSCAASGFPVNRYSMRWYRQAPGKEREWVAGMSSAGDRSSYEDSVKGRFTISRDDARNTVYLQMNSLKPEDTAVYYCNVNVGFEYWGQGTQVTVSS
B1: no binding.
